Among the data in US8063181B2, “Method for the production of cyclic molecules” (ZYRUS Beteiligungsgesellschaft mbH & Co. Patent I KG, priority 2003, dated 2011) are Km, kcat and kcat/Km values, retold here.

Substrate in data set [1]: CCC(C)[C@H](NC(=O)[C@H](Cc1ccc(O)cc1)NC(=O)[C@@H](CCC(N)=O)NC(=O)[C@@H]1CCCN1C(=O)[C@@H](C)NC(=O)[C@@H](CCC(=O)O)NC(=O)[C@H](NC(=O)[C@H](Cc1ccc(O)cc1)NC(=O)[C@H](CCCN)NC(=O)[C@H](CCC(=O)O)NC(C)=O)C(C)O)C(=O)Sc1ccccc1
As to the kind of experiment: cyclization kinetics with fengycin-peptide cyclase. The data set is classed as biochemical. The settings on record: other: cyclization reaction, Lineweaver-Burk plot, 25 mM HEPES, 50 mM NaCl, pH 7, room temperature. How it is done:
The purified substrate with the leaving group according to the present invention is then incubated with the respective peptide cyclase in the ratio of 1 (enzyme): 100 (substrate) in 25 mM HEPES, 50 mM NaCl at pH 7 and room temperature for 30-60 minutes. The production of the HEPES solution is known to persons skilled in the art and was described in J. Sambrook, E. F. Fritsch and T. Maniatis: Molecular Cloning: A Laboratory Manual Vol. I-III, Cold Spring Harbor Laboratory Press, 1982. The identification and quantification of the reaction product is carried out by means of analytical HPLC.
The cyclization of the linear fengycin-thiophenol substrate is carried out in an aqueous cyclization buffer comprised of 2-[4-(2-hydroxyethyl)-1-piperazinyl]-ethane sulfonic acid (HEPES, 25 mM) and sodium chloride (NaCl, 50 mM) at pH 7 in a total volume of 50 μL. The substrate concentration is 100 μM for standard cyclization reactions. The cyclization reaction is initiated by the addition of recombinant fengycin TE at an end concentration of 5 μM and stopped by the addition of 35 μL of 4% trifluoroacetic acid (TFA) in water after 4 hours. […]
With this measurement, the linear range for further kinetic studies is determined. […]

Substrate in data set [2]: CC(C)C[C@H](NC(=O)[C@@H](CC(=O)O)NC(=O)[C@H](NC(=O)[C@H](CN)NC(=O)[C@@H](CC(C)C)NC(=O)[C@@H](CCC(=O)O)NC(=O)CC(C)O)C(C)C)C(=O)N[C@H](CC(C)C)C(=O)Sc1ccccc1
The data set can be described thus: cyclization kinetics with surfactin-peptide cyclase. The data set is classed as biochemical. To be noted: other: cyclization reaction; pH 7.0; 40.0 °C. How it is done: […] The production of the HEPES solution is known to persons skilled in the art and was described in J. Sambrook, E. F. Fritsch and T. Maniatis: Molecular Cloning: A Laboratory Manual Vol. I-III, Cold Spring Harbor Laboratory Press, 1982. The identification and quantification of the reaction product is carried out by means of analytical HPLC.
With this measurement, the linear range for further kinetic studies is determined. The reactions are stopped by the addition of 35 μL TFA (4% in water) and examined by analytic HPLC with a Nucleodur C18 column (Macherey and Nagel, 250/3, pore diameter: 100 Å, particle size: 3 μm) with the following gradient: 0-35 min, 30-60% acetonitrile/0.1% TFA in water/0.1% TFA; 0.4 mL/min, 40° C. Kinetic examinations are carried out at different points in time at substrate concentrations of 50 μM up to 1000 μm and the kinetic parameters KM and kcat are taken from the Lineweaver-Burk plot. For fengycin-thiophenol, a KM of 461 μm and a kcat of 0.33 min^−1 result from the cyclization reaction.
In the case of surfactin-peptide cyclase, kinetic reference data with a SNAC-substrate exists. In the case of surfactin-thiophenol, a KM of 126 μm and a kcat of 5.6 min^−1 are determined for the cyclization reaction, which corresponds to a kcat/KM value of 0.04 μm^−1 min^−1. Compared with that is the kinetic efficiency of surfactin-SNAC, represented by the kcat/KM value 0.0029 μm^−1 min^−1, 14 times less than with surfactin-thiophenol.

B1: recombinated fengycin-peptide cyclase (Bacillus subtilis subsp. subtilis str. 168) (protein)
chain: QNLFCFPPISGFGIYFKDLALLLNEKAAVYGFHFIEQDTRIEQYVNCMTDIQPEGPYVLLGYSAGGNLAFEVAQAMERKGLEVSDFIIVDAYLKEQPLPIDTGNDESAAYLPEAVREKVMKKKRNYQEYWAQLLNEGHIKASIHFIEAGIHPETSGHTGLTKWEGACGNYSEYTGFGAHKDMLEGTYAEKNADIILDILEKITSNQ
notes: recombinant fengycin TE
In the case of B1, in data set [1], the Km (usually the concentration of substrate that gives half-maximal velocity) came to 461 µM and the kcat (in general, the maximal rate divided by the concentration of active sites) is 0.0055 s⁻¹.

B2: surfactin-peptide cyclase (Bacillus subtilis subsp. subtilis str. 168) (protein)
chain: QIIFAFPPVLGYGLMYQNLSSRLPSYKLCAFDFIEEEDRLDRYADLIQKLQPEGPLTLFGYSAGCSLAFEAAKKLEEQGRIVQRIIMVDSYKKQGVSDLDGRTVESDVEALMNVNRDNEALNSEAVKHGLKQKTHAFYSYYVNLISTGQVKADIDLLTSGADFDMPEWLASWEEATTGVYRVKRGFGTHAEMLQGETLDRNAEILLEFLNTQT
notes: purified, isolated thioesterase domains or peptide cyclases from NRPS or PKS systems
As to B2, in data set [2], the Km was 126 µM, the kcat amounted to 0.0933 s⁻¹ and the kcat/Km was 0.04 μm^−1 min^−1.
